B1: 3E7-C1 (antibody, V domains shown)
VH: QVQMKESGPGLVQPSETLSLTCTVSGFSLTSYGVSWVRQPSGKGPEWMGRLWNDGDTAYNSALKSRLSISRDTSKNQVFLKMNSLQTDDTGTYYCTTMNGYKDYWGQGVMVTVSS
VL: TSYELIQPPSASVTLGNTVSLTCVGDELPKRYAYWYQQKPDQSIVRVIYEDSKRPSGISDRFSGSSSGTTATLTIRDAQAEDEADYYCHSTYSDDKLRIFGGGTKLTVLG
B2: 4B9-B11 (antibody, V domains shown)
VH: QMQLKESGPGLVQPSETLSLTCTVSGFSLTSYSVSWVRQPSGKGPEWMGRMYYDGDTAYNSALKSRLSISRDTSKNQVFLKMNSLQTDDTGTYYCTRSIGAEDYWGQGVMVTVSS
VL: TSYELIQPPSASVTLGNTVSLTCVGDELPKRYAYWYQQKPDQSIVRVIYEDSKRPSGISDRFSGSSSGTTATLTIRDAQNEDEADYYCHSTYSDDKLRIFGGGTKLTVLG
B3: 2D12-B12 (antibody, V domains shown)
VH: EVKLVESGGGLVQPGRSLKLSCAASGFNFNDYWMGWVRQAPGKGLEWIGEIKKDSSIINYIPSLKDKFTISRDNAQNTLYLQMSKLGSEDTAIYYCARGVEYYGYHYWGQGTLVTVSS
VL: DIVMTQSPSSLAVSAGETVTINCKSSQSLLYSGNQKNYLAWYQQKPGQSPKLLIYWASTRHSGVPARFIGSGSGSDFTLTISSVQAEDLAIYCCQQYYDIPYTFGAGTKLELK
B4: 3A4-A10-7 (antibody, V domains shown)
VH: QVQLQQSGAALVKPGASVKMSCKASGYTFTDCWVSWVKQSHGKSLEWIGEIHPNSGTTNFNEKFKGKATLTVDKSTSTAYMELSRLTSEDSAIYYCTRAYGGYPFDYWGQGVMVTVSS
VL: ADLVLTQPKSVSTSLESTVKLSCKLNSGNIGRYYMHWYQQHEGRSPTNMIYRDDKRPDGVPDRFSGSIDSSSNSAFLTINNVQTEDEAIYFCHSYDSSINIFGGGTKLTVLG

Tests used:
[1] = target: #231: CAR with VL-L1-VH scFv, Human 3rd-generation; test: subclone supernatant on HEK293T cells transiently expressing the scFv; % positive cells
[2] = target: #231: CAR with VL-L1-VH scFv, Human 3rd-generation; test: flow cytometry on CAR-T cells; PE-labeled secondary antibody; PE-positive cells / total cells
[3] = target: #264: VH-L1-VL CAR-T; test: as above
[4] = target: #371: VL-L2-VH CAR-T; test: as above
[5] = target: #628: VH-L2-VL CAR-T; test: as above
[6] = target: #651: VH-L2-VL CAR-T; test: as above
[7] = target: S#017: CAR with VH-L2-VL scFv, Human 3rd-generation_hIL7_hCCL19_HSVtk; test: as above
[8] = target: S#027: VH-L1-VL CAR-T; test: as above
[9] = target: S#031: CAR with VH-L1-VL scFv, Human 3rd-generation_hIL7_hCCL19_HSVtk; test: as above
[10] = target: S#050: VH-L1-VL CAR-T; test: as above
[11] = target: S#066: VL-L2-VH CAR-T; test: as above
[12] = target: S#067: CAR with VL-L1-VH scFv, Human 2nd-generation (4-1BB)_hIL7_hCCL19_HSVtk; test: as above
[13] = target: S#074: VL-L2-VH CAR-T; test: as above
[14] = target: S#075: CAR with VL-L1-VH scFv, Human 2nd-generation (4-1BB)_hIL7_hCCL19_HSVtk; test: as above
[15] = target: S#076: VH-L2-VL CAR-T; test: as above
[16] = target: S#084: VL-L2-VH CAR-T; test: as above
[17] = target: S#085: VL-L1-VH CAR-T; test: as above
[18] = target: S#097: VL-L2-VH CAR-T; test: as above
[19] = target: S#104: VL-L1-VH CAR-T; test: as above

#231: CAR with VL-L1-VH scFv, Human 3rd-generation, sequence (main, as listed by the source): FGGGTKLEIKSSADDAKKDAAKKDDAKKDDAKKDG
S#076: VH-L2-VL CAR-T, sequence (main, as listed by the source): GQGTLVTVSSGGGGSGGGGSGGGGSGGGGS
S#066: VL-L2-VH CAR-T, sequence (main, as listed by the source): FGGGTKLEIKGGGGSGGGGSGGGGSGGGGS
S#097: VL-L2-VH CAR-T, sequence (main, as listed by the source): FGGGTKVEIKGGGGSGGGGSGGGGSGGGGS

| Binder | Positive (%) [1] [%] | Reactivity (%) [2] [%] | Reactivity (%) [3] [%] | Reactivity (%) [4] [%] | Reactivity (%) [5] [%] | Reactivity (%) [6] [%] | Reactivity (%) [7] [%] | Reactivity (%) [8] [%] | Reactivity (%) [9] [%] | Reactivity (%) [10] [%] | Reactivity (%) [11] [%] | Reactivity (%) [12] [%] | Reactivity (%) [13] [%] | Reactivity (%) [14] [%] | Reactivity (%) [15] [%] | Reactivity (%) [16] [%] | Reactivity (%) [17] [%] | Reactivity (%) [18] [%] | Reactivity (%) [19] [%] |
| --- | --- | --- | --- | --- | --- | --- | --- | --- | --- | --- | --- | --- | --- | --- | --- | --- | --- | --- | --- |
| B1 | 24.5 | 69.6 | 0 | 0 | 0 | 0.1 | 0 | 0 | 2.2 | 0.1 | 0.1 | 41 | 0.1 | 25.9 | 0.1 | 0 | 41.4 | 0 | 21.5 |
| B2 | 60 | 74.6 | 0 | 0.1 | 0.2 | 0.2 | 0 | 1 | 9.7 | 1.1 | 0.1 | 41.5 | 1.4 | 35.7 | 0.2 | 0.1 | 49.6 | 0.1 | 29.1 |
| B3 |  | 67.4 | 11.1 | 0.2 | 0.2 | 0.4 | 0 | 28.4 | 64.6 | 14.5 | 0.9 | 34.9 | 0.8 | 15 | 0.2 | 0.3 | 0.8 | 0.3 | 13.4 |
| B4 |  | 23.9 | 36.7 | 0.2 | 0.1 | 0.2 | 0 | 45.7 | 45.3 | 18.5 | 0.2 | 22.3 | 0.2 | 12.3 | 0.2 | 0.1 | 2.2 | 0.1 | 5.2 |

Source: patent US20240400718A1
